According to publication PMC4207802:

How the values were obtained:
[1] = target: T1 – FSHR-HinR/TSHR (human) (UniProt P16473)
[2] = target: T3 – TSHR-LRR11/FSHR (human) (UniProt P16473)
[3] = target: T4 – TSHR-LRR10/FSHR (human) (UniProt P16473)

Substance: recombinant human thyrotropin (rhTSH) (from UniProt P01215 25-116; P01222 21-132) (ligand)
- EC50 of intracellular cAMP accumulation in transfected COS-7 cells, rhTSH dose-response [1]: 0.4 mU/ml
- intracellular cAMP accumulation in transfected COS-7 cells, rhTSH 0–100 mU/ml; value at 100 mU/ml [1]: 57.2 nM
- EC50 of intracellular cAMP accumulation in transfected COS-7 cells, rhTSH dose-response [2]: 3.8 mU/ml
- intracellular cAMP accumulation in transfected COS-7 cells, rhTSH 0–100 mU/ml; value at 100 mU/ml [2]: 32.9 nM
- EC50 of intracellular cAMP accumulation in transfected COS-7 cells, rhTSH dose-response [3]: 11.6 mU/ml
- intracellular cAMP accumulation in transfected COS-7 cells, rhTSH 0–100 mU/ml; value at 100 mU/ml [3]: 36.6 nM
